Test results from patent publication US20180312587A1 (ADURO BIOTECH HOLDINGS EUROPE B V, published 2018).

What was measured:
human SIRPγ = target: T1, human SIRPγ (human, UniProt Q9P1W8 29-387); test: CELISA, CHO-K1 transfectants; extrapolated
T1 construct: on transfected CHO-K1 cells; also called hSIRPγ
Procedure: (§1) Binding of the humanized antibodies to hSIRPα was studied in CELISA format. Binding of the hSIRPα antibodies to human SIRPαV1, SIRPαV2, hSIRPβ1, and hSIRPγ was confirmed using CHO-K1 cells that had been transiently transfected with cDNA encoding the full length open reading frame of each of these respective targets subcloned into the pCI-neo vector. CHO-K1.hSIRPαV1, CHO-K1.hSIRPαV2, CHO-K1.hSIRPβ1, and CHO-K1.hSIRPγ cells were seeded in culture medium (DMEM-F12 (Gibco) supplemented with 5% New Born Calf Serum (BioWest) and Pen/Strep (Gibco)) in 96-well flat-bottom tissue culture plates and incubated at 37° C., 5% CO₂ and 95% humidity until cell layers were confluent. Subsequently, culture medium was removed and cells were incubated for 1 hour at 37° C., 5% CO₂ and 95% humidity with purified hSIRPα antibodies (10 μg/mL and dilutions thereof). Next, cells were washed with PBS-T and incubated for 1 hour at 37° C., 5% CO₂ and 95% humidity with goat-anti-human IgG-HRP conjugate (Jackson Immuno Research) or goat-anti-mouse IgG-HRP (Southern Biotech). Subsequently, cells were washed three times with PBS-T and anti-hSIRPα immunoreactivity was visualized with TMB Stabilized Chromogen (Invitrogen). Reactions were stopped with 0.5 M H₂SO₄ and absorbances were read at 450 and 610 nm. […] In Table 13 the EC50 values of the humanized hSIRPα antibodies are depicted.
(§2) Table 13: Binding of humanized and parental hSIRPα.50A antibodies to CHO-K1.hSIRPαV1, CHO-K1.hSIRPαV2, CHO-K1.hSIRPβ1, and CHO-K1.hSIRPγ cells.

human SIRPβ1 = target: T2, human SIRPβ1 (human, UniProt O00241 30-398); test: CELISA, CHO-K1 transfectants; nd = not detected
T2 construct: also called hSIRPβ1
Procedure: as §1, §2

human SIRPα variant 1 = target: T3, human SIRPα variant 1 (human, UniProt P78324 31-504); test: CELISA, CHO-K1 transfectants; average of two experiments
T3 construct: full length ORF on transfected CHO-K1 or HEK293 cells; entry includes the signal peptide; also called hSIRPαV1; SIRPαV1
Procedure: as §1, §2

human SIRPα variant 2 = target: T4, human SIRPα variant 2 (human, UniProt P78324 31-504); test: as above
T4 construct: full length ORF on transfected CHO-K1 cells; also called hSIRPαV2; SIRPαV2
Procedure: as §1, §2

T4 sequence (P78324 other isoform, or with tags, fused parts or gaps mutant limits assumed): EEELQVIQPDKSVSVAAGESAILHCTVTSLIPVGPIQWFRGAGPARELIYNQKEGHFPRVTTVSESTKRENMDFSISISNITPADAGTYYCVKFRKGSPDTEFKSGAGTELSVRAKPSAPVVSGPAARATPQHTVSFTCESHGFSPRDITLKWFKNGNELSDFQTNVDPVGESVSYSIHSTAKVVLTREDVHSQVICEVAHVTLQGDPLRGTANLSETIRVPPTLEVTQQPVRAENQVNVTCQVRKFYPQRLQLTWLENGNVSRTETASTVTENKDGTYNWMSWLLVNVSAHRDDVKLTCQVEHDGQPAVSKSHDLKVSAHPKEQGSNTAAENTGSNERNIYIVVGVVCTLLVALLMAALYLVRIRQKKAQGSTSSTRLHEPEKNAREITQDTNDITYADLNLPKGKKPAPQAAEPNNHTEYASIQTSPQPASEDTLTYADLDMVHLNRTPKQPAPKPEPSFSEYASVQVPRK
T1 sequence (Q9P1W8 29-387 limits assumed): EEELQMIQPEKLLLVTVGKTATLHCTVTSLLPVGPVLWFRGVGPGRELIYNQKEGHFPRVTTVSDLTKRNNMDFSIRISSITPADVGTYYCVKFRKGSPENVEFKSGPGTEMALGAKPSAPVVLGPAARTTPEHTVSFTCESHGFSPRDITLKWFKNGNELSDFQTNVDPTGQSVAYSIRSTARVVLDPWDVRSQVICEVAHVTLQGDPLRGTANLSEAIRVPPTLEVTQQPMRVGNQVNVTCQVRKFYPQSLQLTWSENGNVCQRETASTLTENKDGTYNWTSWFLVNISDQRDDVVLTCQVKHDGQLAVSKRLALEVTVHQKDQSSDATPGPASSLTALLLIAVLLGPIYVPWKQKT
T2 sequence (O00241 30-398 limits assumed): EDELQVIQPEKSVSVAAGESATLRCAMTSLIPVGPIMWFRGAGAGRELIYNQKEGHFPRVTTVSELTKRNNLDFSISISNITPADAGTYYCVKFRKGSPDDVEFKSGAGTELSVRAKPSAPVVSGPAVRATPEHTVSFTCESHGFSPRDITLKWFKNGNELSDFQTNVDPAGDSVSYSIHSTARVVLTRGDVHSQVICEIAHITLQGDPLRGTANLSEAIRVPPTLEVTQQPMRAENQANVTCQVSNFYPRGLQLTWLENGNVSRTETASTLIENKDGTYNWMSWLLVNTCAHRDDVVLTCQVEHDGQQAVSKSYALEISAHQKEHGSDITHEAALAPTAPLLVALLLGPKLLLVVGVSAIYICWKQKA
T3 sequence (P78324 31-504 limits assumed, change not shown): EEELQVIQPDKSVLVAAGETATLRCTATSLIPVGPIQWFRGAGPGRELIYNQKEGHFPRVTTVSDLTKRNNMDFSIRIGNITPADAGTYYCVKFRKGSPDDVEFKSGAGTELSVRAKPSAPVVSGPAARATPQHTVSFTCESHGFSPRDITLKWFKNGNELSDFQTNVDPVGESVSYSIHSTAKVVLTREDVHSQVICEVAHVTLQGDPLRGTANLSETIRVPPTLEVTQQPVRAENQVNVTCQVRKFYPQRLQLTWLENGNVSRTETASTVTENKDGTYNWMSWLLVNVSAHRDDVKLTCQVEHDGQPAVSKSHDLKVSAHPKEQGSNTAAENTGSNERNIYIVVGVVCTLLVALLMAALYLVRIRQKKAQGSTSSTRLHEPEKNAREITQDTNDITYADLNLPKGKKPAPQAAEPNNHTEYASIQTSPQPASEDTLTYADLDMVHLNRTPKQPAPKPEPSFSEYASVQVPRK

| Binder | EC50 (human SIRPγ) | EC50 (human SIRPα variant 1) | EC50 (human SIRPα variant 2) | binding result (human SIRPβ1) |
| --- | --- | --- | --- | --- |
| hSIRPα.50A.H3L4 (antibody, human IgG4 S228P, kappa, V domains shown, human IgG4 S228P, kappa; also called hSIRPα.50H3L4) VH: EVQLVQSGAEVVKPGASVMISCKASGFTFTNYYIHWVRQRPGQGLEWIGWIYPGNVNTKYNEKFKARVIMTADKSTSTVYMQLSSLTSEDTAVYYCARPTIIATDFDVWGQGTLVTVSS VL: DIQMTQSPSSLSASVGDRVTITCKASQGVGTAVGWYQKKPGKVPKLLIYWASTRHTGVPDRFSGSGSGTDFTLTINGLQPEDVATYYCQQYSTYPFTFGGGTKLEIKR | 5.17 nM | 1.26 nM | 1.52 nM | no binding (tested: 10 µg/mL and dilutions thereof) |
| hSIRPα.50A.H4L1 (antibody, human IgG4 S228P, kappa, V domains shown, human IgG4 S228P, kappa; also called hSIRPα.50H4L1) VH: EVQLQQSGAELVKPGASVKVSCKASGFTFTNYYIHWVRQRPGQGLEWMGWIYPGNVNTKYNEKFKAKATITADKSTSTAYMELSSLTSEDTAVYYCARPTIIATDFDVWGQGTTVTVSS VL: DIVLTQSPSFLSASVGDRVTITCKASQGVGTAVGWYQQKPGKAPKLLIYWASTRHTGVPDRFSGSGSGTEFTLTISSLQPEDFAAYYCQQYSTYPFTFGGGTKLEIKR | 0.95 nM | 0.683 nM | 0.681 nM | no binding (tested: 10 µg/mL and dilutions thereof) |
| hSIRPα.50A.H5L4 (antibody, human IgG4 S228P, kappa, V domains shown, human IgG4 S228P, kappa; also called hSIRPα.50H5L4) VH: EVQLVQSGAEVVKPGASVKVSCKASGFTFTNYYIHWVRQAPEQGLEWIGWIYPGNVNTKYNEKFKARVTMTADKSTSTAYMELSSLRSDDMAVYYCARPTIIATDFDVWGQGTTVTVSS VL: DIQMTQSPSSLSASVGDRVTITCKASQGVGTAVGWYQKKPGKVPKLLIYWASTRHTGVPDRFSGSGSGTDFTLTINGLQPEDVATYYCQQYSTYPFTFGGGTKLEIKR | 4.03 nM | 1.17 nM | 1.11 nM | no binding (tested: 10 µg/mL and dilutions thereof) |
| hSIRPα.50A.H4L4 (antibody, human IgG4 S228P, kappa, V domains shown, human IgG4 S228P, kappa; also called hSIRPα.50H4L4) VH: EVQLQQSGAELVKPGASVKVSCKASGFTFTNYYIHWVRQRPGQGLEWMGWIYPGNVNTKYNEKFKAKATITADKSTSTAYMELSSLTSEDTAVYYCARPTIIATDFDVWGQGTTVTVSS VL: DIQMTQSPSSLSASVGDRVTITCKASQGVGTAVGWYQKKPGKVPKLLIYWASTRHTGVPDRFSGSGSGTDFTLTINGLQPEDVATYYCQQYSTYPFTFGGGTKLEIKR | 1.98 nM | 1.2 nM | 1.24 nM | no binding (tested: 10 µg/mL and dilutions thereof) |

Continued by falling EC50 (human SIRPγ), values first:

| EC50 (human SIRPγ) | EC50 (human SIRPα variant 1) | EC50 (human SIRPα variant 2) | Binder | binding result (human SIRPβ1) |
| --- | --- | --- | --- | --- |
| 1.2 nM | 0.878 nM | 0.868 nM | hSIRPα.50A.H3L5 (antibody, human IgG4 S228P, kappa, V domains shown, human IgG4 S228P, kappa; also called hSIRPα.50H3L5) VH: EVQLVQSGAEVVKPGASVMISCKASGFTFTNYYIHWVRQRPGQGLEWIGWIYPGNVNTKYNEKFKARVIMTADKSTSTVYMQLSSLTSEDTAVYYCARPTIIATDFDVWGQGTLVTVSS VL: DIVLTQSPSFLSASVGDRVTITCKASQGVGTAVGWYQQKPGKSPKLLIYWASTRHTGVPDRFSGSGSGTEFTLTISNLQPEDFAAYYCQQYSTYPFTFGGGTKLEIKR | no binding (tested: 10 µg/mL and dilutions thereof) |
| 0.808 nM | 0.701 nM | 0.661 nM | hSIRPα.50A.H4L5 (antibody, human IgG4 S228P, kappa, V domains shown, human IgG4 S228P, kappa; also called hSIRPα.50H4L5) VH: EVQLQQSGAELVKPGASVKVSCKASGFTFTNYYIHWVRQRPGQGLEWMGWIYPGNVNTKYNEKFKAKATITADKSTSTAYMELSSLTSEDTAVYYCARPTIIATDFDVWGQGTTVTVSS VL: DIVLTQSPSFLSASVGDRVTITCKASQGVGTAVGWYQQKPGKSPKLLIYWASTRHTGVPDRFSGSGSGTEFTLTISNLQPEDFAAYYCQQYSTYPFTFGGGTKLEIKR | no binding (tested: 10 µg/mL and dilutions thereof) |
